Assay: yeast display, Sf9 membrane polyspecificity reagent, FACS + sequencing; frameworks hold sequencing errors
Outline: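 Nanobodies from a synthetic yeast display library (Saccharomyces cerevisiae BJ5465), induced 36–48 hours with galactose, were stained 1 hour at 4 °C with 10% biotinylated, detergent-solubilized Sf9 membrane reagent, enriched on streptavidin microbeads, then FACS-sorted. Anti-HA (expression) and streptavidin (reagent binding) fluorescence set low and high (top ~1%) gates. Polyreactivity labels come from the gate of origin. Genes were colony-PCR amplified, MiSeq 2 × 250 sequenced and filtered by CDR length.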

## QVQLVESGGGLVQAGGSLRLSCAASGSTFVYNVMGWYRQAPGKERELVAAIRWRGGSTYADSVKGRFTISRDNAKNSVYLQMTSLKPQDTAVYYSNTGHEEDEYDYWGQGTQVTVSS
  polyreactivity (PSR sort gate): low polyreactivity

## QVQLVESGGGLVQAGGSLRLSCAASGSTFVYYAMGWYRQAPGKERALVASITTSAGSTYYADSVKGRFTISRDTAKNSVYLQMNSLKPEDTAVYYCNARITITYYYWGQGTQVTVSS
  polyreactivity (PSR sort gate): high polyreactivity

## QVQLVESGGGLVQAGGSLRLSCAASGSTFVYYAMGWYRQAPGKERELVADISWSGGDTYYADSVKGRFTISRDNAKNTVYLQMNSLKPVDTAVYYCAAEWSTPSYVGFADGFEYWGQGTQVTVSS
  polyreactivity (PSR sort gate): low polyreactivity

## QVQLVESGGGLVQAGGSLRLSCAASGSTFVYYAMGWYRQAPGKERELVARISSGGSTYYADSVKGRFTISRDNAKNTVYLQMNSLKPEDTAVYYCAVLLWVSPLKREFYWGQGTQVTVSS
  polyreactivity (PSR sort gate): high polyreactivity

## QVQLVESGGGLVQAGGSLRLSCAASGSTFVYYAMGWYRQAPGKERELVATINYNGGSTSYADSVKGRFTISRDNAKNTVYLQMNSLKPEDTAVYYCAKDRYYTWGDYWGQGTQVTVSS
  polyreactivity (PSR sort gate): low polyreactivity

## QVQLVESGGGLVQAGGSLRLSCAASGSTFVYYAMGWYRQAPGKERELVATITSGGSTKYADSVKGRFTISRDNAKNTVYLQMNSLKPEDTAVYYCAAAYRVRGRTYDSWGQGTQVTVSS
  polyreactivity (PSR sort gate): high polyreactivity

## QVQLVESGGGLVQAGGSLRLSCAASGSTFVYYAMGWYRQAPGKERELVAVITWSGGRTYYADSVKGRFTISRDNAKNTVYVLMNSLKPEDTAVYYCAARYPGYQYGLDYWGEGTQVTVSS
  polyreactivity (PSR sort gate): high polyreactivity

## QVQLVESGGGLVQAGGSLRLSCAASGSTFVYYTMGWYRQAPGKERELVATITYGGGSTYYADSVKGRFTISRDNAKNTVYLQMNSLKPEVTAVYYCAARPSWVRKMYYWGQGTQVTVSS
  polyreactivity (PSR sort gate): high polyreactivity

## QVQLVESGGGLVQAGGSLRLSCAASGSTFWAYAMGWYRQAPGKERELVAAITTGGGRTFYADSVKGRFTISRDNAKNTVYLQMNSLKPEDTAVYYCAAVSQSYRMYYWGQGTQVTVSS
  polyreactivity (PSR sort gate): low polyreactivity

## QVQLVESGGGLVQAGGSLRLSCAASGSTFWFYAMGWYRQAHGKERELVAVISNSGSTYYADSVKGRFTISRDNAKNTVYLQMNSLKPEDTAVYYCNKDGGGDSYWYDYWGQGTQVTVSS
  polyreactivity (PSR sort gate): low polyreactivity

## QVQLVESGGGLVQAGGSLRLSCAASGSTFWGYAMAWYRQAPGKERELVATINQSAGSTYYADSVKGRFTISRDNAKNTVYLQMNSLKPEDTAVYYCAAEARVQFSYDYWGQGTQVTVSS
  polyreactivity (PSR sort gate): low polyreactivity

## QVQLVESGGGLVQAGGSLRLSCAASGSTFWGYAMGWSRPAPGKERELVATITTGGGGTYYADSVKGRFTISRDNAKNTVYLQMNSLKPEDTAVYYCAARLRDGRTPRTEYDYWGQGTQVTVSS
  polyreactivity (PSR sort gate): low polyreactivity

## QVQLVESGGGLVQAGGSLRLSCAASGSTFWGYTMGWYRPAPGKERELVAAITGSGGSTNYADSVKGRFTISRDNAKNTVYLQMNSLKPEDTAVYYCATQGITPSNSYDYWGQGTQVTVSS
  polyreactivity (PSR sort gate): low polyreactivity

## QVQLVESGGGLVQAGGSLRLSCAASGSTFWKYAMGWYRQAPGKEREFVAAITRSGGNTYYADSVKGRFTISRDNAKNTVYLQMNSLKPEDTAVYYCAKVYKLITSYRGFGYWGQGTQVTVSS
  polyreactivity (PSR sort gate): high polyreactivity

## QVQLVESGGGLVQAGGSLRLSCAASGSTFWLYAMGWYRQAPGKERELVAAIRSGDRTNYADSVKGRFTISRDNAKHTVYLQMNSLKPEDTAVYYCAVRRWGTSFVEDDYWGQGTQVTVSS
  polyreactivity (PSR sort gate): low polyreactivity

## QVQLVESGGGLVQAGGSLRLSCAASGSTFWPNAMGWYRQAPGKERELVAAITGGGGTNYADSVKGRFTISRDNAKNTVYLQMNSLKPEDTAVYYCAAKKVNSRSHVKYYYWGQGTQVSVSS
  polyreactivity (PSR sort gate): high polyreactivity

## QVQLVESGGGLVQAGGSLRLSCAASGSTFWPYAMGWYRQAPGKERELVAAITSSGGSTYYADSVKGRFTISRDNAKNTVYLQMNSLKPEETAVYYCAADWSNLGAYDYWGQGTQVTVSS
  polyreactivity (PSR sort gate): low polyreactivity

## QVQLVESGGGLVQAGGSLRLSCAASGSTFWPYTMGWYRQAPGKERELVAAISLSGGSTYYADSVKGRFTISRDNAKNTVYLQMNSLKPEDTAVYYCAAEGGYQNWHYLYDYWGQGTQVTVSS
  polyreactivity (PSR sort gate): low polyreactivity

## QVQLVESGGGLVQAGGSLRLSCAASGSTFWSYTMGWYRQAPGKERELVARITGRGGSTYYADSVKGRFTISRDNAKNTVYLLMNSLKPEDTAVYYCAAGGGRYGFYRFDYWGQGTQVTVSS
  polyreactivity (PSR sort gate): low polyreactivity

## QVQLVESGGGLVQAGGSLRLSCAASGSTFWTNAMGWNRQAPGKERELVATITYSTGTYADSVKGRFTISRDNAKNTVYLQMNSLKPEDTAVYYCAATGVPGWVGFDYWGQGTQVSVSS
  polyreactivity (PSR sort gate): low polyreactivity

## QVQLVESGGGLVQAGGSLRLSCAASGSTFWVNALGWSRQAPGKERELVAVITVTGSRTYYADSVKGRFTISRDNAKNTVYLQMNTLKPEDTAVYYCAADRRRVQYKFDYWGQGTQVTVSS
  polyreactivity (PSR sort gate): low polyreactivity

## QVQLVESGGGLVQAGGSLRLSCAASGSTFWVNAMGWYRQAPGKERELVAAISNSGGSTYYADSVKGRFTISRDNAKNTVYLQMNSLKPEDTAVYYCAAAGGVDYDYWGQGTQVTVSS
  polyreactivity (PSR sort gate): low polyreactivity

## QVQLVESGGGLVQAGGSLRLSCAASGSTFWVNAMGWYRQAPGKERELVAAITVRGTSTYYADSVKGRFTISRDNAKNTVYLQMNSLKPEDTAVYYCAKGSLGSTRYYYWGQGTQVTVSS
  polyreactivity (PSR sort gate): low polyreactivity

## QVQLVESGGGLVQAGGSLRLSCAASGSTFWVYGMGWSRQAPGKERELVADITSIGGSTYYADSVKGRFTISRDNAKNTVYLQMNSLKPEDTAVYYCAARETWYPYYWMGYWGQGTQVTVSS
  polyreactivity (PSR sort gate): high polyreactivity

## QVQLVESGGGLVQAGGSLRLSCAASGSTFWYNDMGWYRQAPGKESELVAAITWTGDGTYYADTVKGRFTISRDNAKNTVYLQMNSLKPEDTAVYYCAAAYFQWSTSIVGLDAWYDYWGQGTQVTVSS
  polyreactivity (PSR sort gate): low polyreactivity

## QVQLVESGGGLVQAGGSLRLSCAASGSTFWYYAMGWYRQAPGKEREFVAAITTSAGRTYYADSVKGRFTISRDNAKNTVYLQMNSLKPEDTAVYYCAAEPRQYWEYNYWGQGTQVTVSS
  polyreactivity (PSR sort gate): high polyreactivity

## QVQLVESGGGLVQAGGSLRLSCAASGSTFWYYAMGWYRQAPGKERELVAAINGSGSRTYYADSVKGRFTISRDNAKNTVYLQMNSLKPEDTAVYYCAAGSLGRYYFKLDYWGQGTQVTVSS
  polyreactivity (PSR sort gate): high polyreactivity

## QVQLVESGGGLVQAGGSLRLSCAASGSTFWYYAMGWYRQAPGKERELVAAISVRGGSTYYADSVKGRFTISRDNAKNTVYLQMNSLKPEETGVYYCAAVSYKSHRYDYWGQGTQVTVSS
  polyreactivity (PSR sort gate): high polyreactivity

## QVQLVESGGGLVQAGGSLRLSCAASGSTFWYYAMGWYRQAPGKERELVAAITRGASTNYADSVKGRFTISRDNAKNTVYLQMNSLKPEDTAVYYSAAGPARWKGYYWGQGTQVTVSS
  polyreactivity (PSR sort gate): high polyreactivity

## QVQLVESGGGLVQAGGSLRLSCAASGSTFWYYAMGWYRQAPGKERELVAAITSSGSTYYADSVKGRFTISRDNAKNTVYLQMNSLKPEDTAVYYCAAEQWYGYASYDYWGQVTQVTVSS
  polyreactivity (PSR sort gate): high polyreactivity

## QVQLVESGGGLVQAGGSLRLSCAASGSTFWYYAMGWYRQAPGKERELVADITISGGSTYYSDSVKGRFTISRDNAKNTVYLQMNSLKPEDTAVYYCATDDTHRVGWFDYWGQGTQVTVSS
  polyreactivity (PSR sort gate): low polyreactivity

## QVQLVESGGGLVQAGGSLRLSCAASGSTFWYYAMGWYRQAPGKERELVADITYSGVSTYYADSVKGRFTISRDNAKNTVYLQMNSLKPEDTAVYYCNADWGSVNGYSGYYYWGQGTQVNVSS
  polyreactivity (PSR sort gate): low polyreactivity

## QVQLVESGGGLVQAGGSLRLSCAASGSTFWYYAMGWYRQAPGKERELVASITYSGGSTYYADSVKGRFTISRDNAKNTVYLQMNSLKPEDSAVYYCAAEGYYSNYHYWGQGTQVTVSS
  polyreactivity (PSR sort gate): low polyreactivity

## QVQLVESGGGLVQAGGSLRLSCAASGSTFWYYGMGWYRQAPGKERELVAAITRGGSTYYADSVKGRFTISRDNAKNTVYLQMNSLKPEDTAVYYCAARPRYRAPYGYWGQGTQVTVSS
  polyreactivity (PSR sort gate): high polyreactivity

## QVQLVESGGGLVQAGGSLRLSCAASGSTFWYYGMGWYRQAPGKERELVAAITRGGSTYYADSVKGRFTISRDNAKNTVYLQMNSLKPEDTAVYYCARAPSYSTGVSIRDYWGQGTQVTVSS
  polyreactivity (PSR sort gate): high polyreactivity

## QVQLVESGGGLVQAGGSLRLSCAASGSTFYAKAMGLYRQAPGKEREFVAVITQSGGSTYYADSVKGRFTISRDNAKNTVYLQMNSLKPEDTAVYYCAKTHYRRSLSMYYWGQGTQVTVSS
  polyreactivity (PSR sort gate): low polyreactivity

## QVQLVESGGGLVQAGGSLRLSCAASGSTFYANAMGWYRQAPGKERELVAAIDWSGATTYYADSVKGRFTISRDTAKNTVYLQMNSLKPEDTAVYYCAAYRYRPHVHRYYRYDYWGQGTQVTVSS
  polyreactivity (PSR sort gate): high polyreactivity

## QVQLVESGGGLVQAGGSLRLSCAASGSTFYAYAMGWYRQAPGKERELVAAITSRGGSTYYADSVKGRFTISRDNAKYTVYLELISLKPEDTAVYYCDARTCWWSRYYGSWGQGTQVTVSS
  polyreactivity (PSR sort gate): high polyreactivity

## QVQLVESGGGLVQAGGSLRLSCAASGSTFYAYTMGWYRQAPGKARELFGTISSSGGRTNYADSVKGRFTISRDNAKNTVYLQMNSLKPEDTAVYYCAARSRVRNLVNGYTGLWYDYWGQGTQVTVSS
  polyreactivity (PSR sort gate): high polyreactivity

## QVQLVESGGGLVQAGGSLRLSCAASGSTFYDNAMGWYRQAPGKERELVASIRSGGSTKYADSVKGRFTISRDNAKNTVYLQMNSLKPEDTAVYYCATAFIVPFPGSDYWGQGTQVTVSS
  polyreactivity (PSR sort gate): low polyreactivity

## QVQLVESGGGLVQAGGSLRLSCAASGSTFYDYAMGWYRQAPGKERELVAAINGNGDSTYYADSVKGRFTISRDNAKNTVYLQMNSLKPEDTAVYYCAASGYRRYYGYDYWGQGTQVTVSS
  polyreactivity (PSR sort gate): low polyreactivity

## QVQLVESGGGLVQAGGSLRLSCAASGSTFYDYAMGWYRQAPGKERELVASISISGGSTYADSVKGRFTISRDNAKNTVYLQMNSLKPEDTAVYYCAADSWGIGYGPDYEYWGQGTQVTVSS
  polyreactivity (PSR sort gate): low polyreactivity

## QVQLVESGGGLVQAGGSLRLSCAASGSTFYDYAMGWYRQAPGKERELVASISISGGSTYADSVKGRFTISRDNAKNTVYLQMNSLKPEDTAVYYCNAKNYSWDDYYWVPDYEYWGQGTQVTVSS
  polyreactivity (PSR sort gate): low polyreactivity

— the nanobody polyreactivity screen of Harvey et al. (2022)
